Measured values published in article PMC10213502, “ICA69 regulates activity-dependent synaptic strengthening and learning and memory” (Frontiers in Molecular Neuroscience, 2023).

Target: T1, GFP-tagged PICK1 (UniProt Q9EP80 1-416)
T1 construct: construct as previously described (Cao et al., 2007); also called GFP-PICK1; source: HEK293T, transfected, in lysate
Assay: co-IP; HEK cells co-transfected with the GFP-tagged bait and both myc-tagged proteins; IP with GFP antibody (normal rabbit serum as control), myc blot; IP signals normalised to input; lysis buffer 1% NP-40, 200 mM NaCl, 20 mM HEPES pH 7.4; 4°C
Details: partners not purified

T1 sequence (Q9EP80 whole entry): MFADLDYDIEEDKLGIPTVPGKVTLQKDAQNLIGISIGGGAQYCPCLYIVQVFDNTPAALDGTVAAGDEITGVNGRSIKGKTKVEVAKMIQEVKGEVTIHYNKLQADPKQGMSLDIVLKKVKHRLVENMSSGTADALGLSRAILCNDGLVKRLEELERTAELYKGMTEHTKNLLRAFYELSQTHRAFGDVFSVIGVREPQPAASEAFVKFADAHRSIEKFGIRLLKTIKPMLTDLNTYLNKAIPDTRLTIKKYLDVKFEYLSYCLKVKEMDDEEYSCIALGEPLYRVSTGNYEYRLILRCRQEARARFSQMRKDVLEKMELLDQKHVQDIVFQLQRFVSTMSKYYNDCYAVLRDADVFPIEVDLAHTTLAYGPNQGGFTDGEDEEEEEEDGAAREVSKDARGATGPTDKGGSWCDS

B1: myc-tagged ICA69 (full-length) (natural protein, UniProt Q63054 1-480, looked up)
chain: MSGHKCYSWELQDRFAQDKSVVNKMQQKYWETKQAFIKATGKKEDEHVVASDADLDAKLELFHSIQRTCLDLSKAIVLYQKRICFLSQEENELGKFLRSQGFQDKTRAGKMMQATGKALCFSSQQRLALRNPLCRFHQEVETFRHRAISDTWLTVNRMEQCRTEYRGALLWMKDVSQELDPDLYKQMEKFRKVQTQVRLAKKNFDKLKMDVCQKVDLLGASRCNLLSHMLATYQTTLLHFWEKTSHTMAAIHESFKGYQPYEFTTLKSLQDPMKKLVEKEKKKSSRRENREAVAQEPRQLISLEEENQHKESSTCQKEEGKSVPSSVDKSSADDACSGPIDELLDVKPEEACLGPMAGTPEPESGDKDDLLLLNEIFSTSSLDEGEFSREWAAVFGDDRLKEPAPMGAQGEPDPKPQIGSAFLPSQLLDQNMKDLQASLQEPAKAASDLTAWFSLFADLDPLSNPDAIGKTDKEHELLNA
notes: ICA69 (islet cell autoantigen of 69 kDa), myc-tagged full-length made by overlap extension PCR; The same protein as m1, with another tag; also called myc-ICA69; source: HEK293T, transfected, in lysate
heteromer/homomer ratio (myc-ICA69 over myc-PICK1 in the IP of GFP-PICK1): 19 ratio
